Experimental data from paper PMC9805502.

Biological target: HilD^Q39E,N44D,H95L mutant (recombinant) (Salmonella enterica serovar Typhimurium strain 14028s)
Assay: mass photometry

For “HilD^Q39E,N44D,H95L mutant (recombinant) (natural protein)”, the stoichiometry N was 2.
